Assay results taken from patent publication US20160137696A1 (Bristol-Myers Squibb, published 2016).
Starred links: 1 amine or outer side, 2 acyl side, 3 side chain; linkers in the order of their positions; H or OH if unused. Positions of bridges follow the written chain, without caps; N, C: chain ends. Non-standard residues stand in square brackets, D forms with d. Groups on a side chain read outwards from the residue. Primed or numbered codes have the meaning given here. No end group written: not given here. *: point of attachment. Pra′ = propargylglycine (built in as LPH), clicked to a 1-substituted triazol-4-yl-alanine, O=C([C@H](Cc1cn([*:3])nn1)N[*:1])[*:2]; X1 = (S)‑3‑carboxy‑3‑(15-carboxypentadecanoylamino)propyl, O=C(O)CCCCCCCCCCCCCCC(=O)N[C@@H](CC*)C(=O)O; Phe(4-OMe) = p-methoxyphenylalanine (O-methyl-L-tyrosine), COc1ccc(C[C@H](N[*:1])C(=O)[*:2])cc1; Pra″ = its azide, alkyne or alkene has reacted where a group follows in round brackets; Pra(4) = propargylglycine, clicked with an azide to give a triazolylalanine residue; X2 = (S)‑3‑carboxy‑3‑palmitamidopropyl, CCCCCCCCCCCCCCCC(=O)N[C@@H](CC*)C(=O)O; Pra(3) = propargylglycine, clicked to an azide to give a triazolyl-alanine; triazole = 1,2,3-triazole formed by click of the Pra alkyne with the azide; Trp(1-CH2CO) = O=C([C@H](Cc1cn(CC(=O)[*:3])c2ccccc12)N[*:1])[*:2]; Phe(3,4,5-F3) = N[C@@H](Cc1cc(F)c(F)c(F)c1)C(=O)O; C18 diacid = O=C(O)CCCCCCCCCCCCCCCCC(=O)*; C16 diacid = O=C(O)CCCCCCCCCCCCCCC(=O)*; γGlu = O=C(O)[C@H](CCC(=O)[*:2])N[*:1]; Aha = [N-]=[N+]=NCC[C@H](N)C(=O)O; Hyp = O=C(O)[C@@H]1C[C@@H](O)CN1; NMeF = CN[C@@H](Cc1ccccc1)C(=O)O; dHyp = O=C(O)[C@H]1C[C@H](O)CN1; NMeNle = CCCC[C@H](NC)C(=O)O; triazole″ = not defined here; Bzt = benzothienylalanine; Pip = O=C(O)[C@@H]1CCCCN1; NMeA = CN[C@@H](C)C(=O)O; Orn = NCCC[C@H](N)C(=O)O; PEG7′ = not defined here; Pra = C#CC[C@H](N)C(=O)O; Dab = NCC[C@H](N)C(=O)O; Dap = NC[C@H](N)C(=O)O

Experiments:
[1] = molecular target: T1, Recombinant Human PD-L1-TVMV-His (human, UniProt Q9NZQ7 19-239); assay: HTRF vs PD-1-Ig; C = IC50 0.0003-0.0099 µM
T1 construct: expressed in HEK293T cells; also called PD-L1-His; hPD-L1(19-239)-TVMV-His
Experimental: (§1) Homogenous Time-Resolved Fluorescence (HTRF) Assays of Binding of Soluble PD-1 to Soluble PD-L1. Soluble PD-1 and soluble PD-L1 refers to proteins with carboxyl-end truncations that remove the transmembrane-spanning regions and are fused to heterologous sequences, specifically the Fc portion of the human immunoglobuling G sequence (Ig) or the hexahistidine epitope tag (His). All binding studies were performed in an HTRF assay buffer consisting of dPBS supplemented with 0.1% (w/v) bovine serum albumin and 0.05% (v/v) Tween-20. For the PD-1-Ig/PD-L1-His binding assay, inhibitors were pre-incubated with PD-L1-His (10 nM final) for 15 m in 4 μl of assay buffer, followed by addition of PD-1-Ig (20 nM final) in 1 μl of assay buffer and further incubation for 15 m. PD-L1 fusion proteins from either human, cynomologous macaques, mouse, or other species were used. HTRF detection was achieved using europium crypate-labeled anti-Ig monoclonal antibody (1 nM final) and allophycocyanin (APC) labeled anti-His monoclonal antibody (20 nM final). Antibodies were diluted in HTRF detection buffer and 5 μl was dispensed on top of binding reaction. The reaction was allowed to equilibrate for 30 minutes and signal (665 nm/620 nm ratio) was obtained using an EnVision fluorometer. Additional binding assays were established between PD-I-Ig/PD-L2-His (20 and 5 nM, respectively), CD80-His/PD-L1-Ig (100 and 10 nM, respectively) and CD80-His/CTLA4-Ig (10 and 5 nM, respectively). Binding/competition studies between biotinylated Compound No. 71 and human PD-L1-His were performed as follows. Macrocyclic peptide inhibitors were pre-incubated with PD-L1-His (10 nM final) for 60 minutes in 4 μl of assay buffer followed by addition of biotinylated Compound No. 71 (0.5 nM final) in 1 μl of assay buffer. Binding was allowed to equilibrate for 30 minutes followed by addition of europium crypated labeled Streptavidin (2.5 pM final) and APC-labeled anti-His (20 nM final) in 5 μl of HTRF buffer. The reaction was allowed to equilibrate for 30 m and signal (665 nm/620 nm ratio) was obtained using an EnVision fluorometer.

[2] = molecular target: T1, Recombinant Human PD-L1-TVMV-His; assay: HTRF vs PD-1-Ig; B = IC50 0.01-0.099 µM
Experimental: as §1

T1 sequence (Q9NZQ7 other isoform, or with tags, fused parts or gaps limits assumed): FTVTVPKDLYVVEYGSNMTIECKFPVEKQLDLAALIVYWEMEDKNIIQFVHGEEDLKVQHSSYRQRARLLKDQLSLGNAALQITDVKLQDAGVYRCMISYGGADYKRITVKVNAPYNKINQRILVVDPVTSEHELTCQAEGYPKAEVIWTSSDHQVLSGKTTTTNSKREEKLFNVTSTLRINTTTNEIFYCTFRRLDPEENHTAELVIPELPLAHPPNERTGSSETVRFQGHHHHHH

Binder: {CH2CO}-Y[NMeA]NP[Dap]L[Hyp]WS[Bzt][NMeNle][NMeNle]RCG[Pra] (thioether N-14) [INT-1300A]
- IC50 [1]: 0.3 to 9.9 nM

Binder: {CH2CO}-Y[NMeA]NP[Dap]L[Hyp]WS[Bzt][NMeNle][NMeNle]RCG[Aha] (thioether N-14) [INT-1300B]
- IC50 [1]: 0.3 to 9.9 nM

B1: INT-130AF (peptide)
peptide: {CH2CO}-Y[NMeA]NP[Dap]L[Hyp]W[Dab][Trp(1-CH2CO)][NMeNle][NMeNle]LC[Pra]-OH
modifications: thioether N-14
SMILES: C#CC[C@H](NC(=O)[C@@H]1CSCC(=O)N[C@@H](Cc2ccc(O)cc2)C(=O)N(C)[C@@H](C)C(=O)N[C@@H](CC(N)=O)C(=O)N2CCC[C@H]2C(=O)N[C@@H](CN)C(=O)N[C@@H](CC(C)C)C(=O)N2C[C@H](O)C[C@H]2C(=O)N[C@@H](Cc2c[nH]c3ccccc23)C(=O)N[C@@H](CCN)C(=O)N[C@@H](Cc2cn(CC(=O)O)c3ccccc23)C(=O)N(C)[C@@H](CCCC)C(=O)N(C)[C@@H](CCCC)C(=O)N[C@@H](CC(C)C)C(=O)N1)C(=O)O
- IC50 [1]: 0.3 to 9.9 nM

B2: INT-130AG (peptide)
peptide: {CH2CO}-Y[NMeA]NP[Dap]L[Hyp]W[Dab][Trp(1-CH2CO)][NMeNle][NMeNle]EC[Pra]-OH
modifications: thioether N-14
SMILES: C#CC[C@H](NC(=O)[C@@H]1CSCC(=O)N[C@@H](Cc2ccc(O)cc2)C(=O)N(C)[C@@H](C)C(=O)N[C@@H](CC(N)=O)C(=O)N2CCC[C@H]2C(=O)N[C@@H](CN)C(=O)N[C@@H](CC(C)C)C(=O)N2C[C@H](O)C[C@H]2C(=O)N[C@@H](Cc2c[nH]c3ccccc23)C(=O)N[C@@H](CCN)C(=O)N[C@@H](Cc2cn(CC(=O)O)c3ccccc23)C(=O)N(C)[C@@H](CCCC)C(=O)N(C)[C@@H](CCCC)C(=O)N[C@@H](CCC(=O)O)C(=O)N1)C(=O)O
- IC50 [1]: 0.3 to 9.9 nM

Binder: {CH2CO}-Y[Pip]NP[Dap]L[Hyp]W[Dab][Trp(1-CH2CO)][NMeNle][NMeNle]LCG[Pra] (thioether N-14 (inferred)) [INT-130AI]
- IC50 [1]: 0.3 to 9.9 nM

Binder: {CH2CO}-Y[NMeA]NP[Dap]L[Hyp]W[Dab][Trp(1-CH2CO)][NMeNle][NMeNle]DC[Pra]-OH (thioether N-14 (inferred)) [INT-130AH]
- IC50 [1]: 0.3 to 9.9 nM

Binder: {CH2CO}-Y[Pip]NP[Dap]L[Hyp]W[Dab][Trp(1-CH2CO)][NMeNle][NMeNle]ECG[Pra] (thioether N-14 (inferred)) [INT-130AJ]
- IC50 [1]: 0.3 to 9.9 nM

Binder: {CH2CO}-Y[Pip]NP[DapMe]L[Hyp]W[Dab][Trp(1-CH2CO)][NMeNle][NMeNle]LCG[Pra] (thioether N-14 (inferred)) [INT-130AK]
- IC50 [1]: 0.3 to 9.9 nM

Binder: {CH2CO}-Y[Pip]NP[DapMe]L[Hyp]W[Dab][Trp(1-CH2CO)][NMeNle][NMeNle]ECG[Pra] (thioether N-14 (inferred)) [INT-130AL]
- IC50 [1]: 0.3 to 9.9 nM

B3: Example 14123 (peptide)
peptide: FXDPXLPWXWXXLCGE
modifications: ClAc-Tyr(4-F)-Pip-Asp-Pro-Dap-Leu-Hyp-Trp-Dab-Trp'-mNle-mNle-Leu-Cys-Gly-((S)-4-(Fmoc-amino)-5-(tert-butoxy)-5-oxopentanoic acid)-[Modified resin 14A], deprotected; Glu joined through its gamma-carboxyl; 14A = ethylenediamine amide of the gamma-carboxyl of Glu N-(17-carboxyheptadecanoyl); cyclised ClAc-Cys
- IC50 [1]: 0.3 to 9.9 nM

Binder: {CH2CO}-Y[Pip]NP[Dap]L[Hyp]W[Dab][Trp(1-CH2CO)][NMeNle][NMeNle]LCG[Dap]([γGlu-C18 diacid]) (thioether N-14 (inferred)) [Example 13152]
- IC50 [1]: 0.3 to 9.9 nM

Binder: {CH2CO}-Y[NMeA]NP[Dap]L[Hyp]W[Dab][Trp(1-CH2CO)][NMeNle][NMeNle]LCG[Dap]([γGlu-C18 diacid]) (thioether N-14 (inferred)) [Example 13153]
- IC50 [1]: 0.3 to 9.9 nM

Binder: {CH2CO}-[Phe(4-OMe)][Pip]NPHQ[Hyp]W[Dab][Trp(1-CH2CO)][NMeNle][NMeNle]LCG[Dap]([γGlu-C18 diacid]) (thioether N-14) [Example 13154]
- IC50 [1]: 0.3 to 9.9 nM

Binder: {CH2CO}-Y[NMeA]NP[Dap]L[Hyp]WSW[NMeNle][NMeNle]RCG[Pra′]([triazole-X1]) (thioether N-14) [Example 14066]
- IC50 [1]: 0.3 to 9.9 nM

B4: INT-130AB (peptide)
peptide: {CH2CO}-Y[NMeA]NP[Dap]L[Hyp]W[Dab][Trp(1-CH2CO)][NMeNle][NMeNle]LCGGG[Pra]-OH
modifications: thioether N-14
SMILES: C#CC[C@H](NC(=O)CNC(=O)CNC(=O)CNC(=O)[C@@H]1CSCC(=O)N[C@@H](Cc2ccc(O)cc2)C(=O)N(C)[C@@H](C)C(=O)N[C@@H](CC(N)=O)C(=O)N2CCC[C@H]2C(=O)N[C@@H](CN)C(=O)N[C@@H](CC(C)C)C(=O)N2C[C@H](O)C[C@H]2C(=O)N[C@@H](Cc2c[nH]c3ccccc23)C(=O)N[C@@H](CCN)C(=O)N[C@@H](Cc2cn(CC(=O)O)c3ccccc23)C(=O)N(C)[C@@H](CCCC)C(=O)N(C)[C@@H](CCCC)C(=O)N[C@@H](CC(C)C)C(=O)N1)C(=O)O
notes: also called Intermediate 130AB
- IC50 [2]: 10 to 99 nM

Binder: {CH2CO}-Y[NMeA]NP[Dap]L[Hyp]W[Dab][Trp(1-CH2CO)][NMeNle][NMeNle]LCGGG[Pra″]([triazole-PEG7′-γGlu-C18 diacid]) (thioether N-14 (inferred)) [Example 13124]
- IC50 [2]: 10 to 99 nM

Binder: {CH2CO}-Y[NMeA]DPHQ[Hyp]WSW[NMeNle][NMeNle]ECG[Pra(3)]([triazole″-X2])G (thioether N-14; reading uncertain) [Example 14062]
- IC50 [2]: 10 to 99 nM

Binder: {CH2CO}-Y[NMeA]DPHK[Hyp]WKW[NMeNle][NMeNle]ECG[Pra(3)]([triazole″-2,5,8,11‑tetraoxatridecyl])G (thioether N-14; reading uncertain) [Example 14063]
- IC50 [2]: 10 to 99 nM

Binder: {CH2CO}-Y[NMeA]DPHQ[Hyp]WSW[NMeNle][NMeNle]ECG[Pra′]([triazole-X1]) (thioether N-14) [Example 14068]
- IC50 [2]: 10 to 99 nM

Binder: {CH2CO}-Y[NMeA]DPHQ[Hyp]WSW[NMeNle][NMeNle]ECG[Pra′]([triazole-X1])G (thioether N-14) [Example 14069]
- IC50 [2]: 10 to 99 nM

Binder: {CH2CO}-[Phe(3,4,5-F3)][NMeF][NMeNle][dP]DV[NMeF][Orn][dP]WYLCG[Pra′]([triazole-X1]) (thioether N-13) [Example 14073]
- IC50 [2]: 10 to 99 nM

Binder: {CH2CO}-[Phe(3,4,5-F3)][NMeF][NMeNle][dHyp]DV[NMeF]D[dP]WYLCG[Pra′]([triazole-X1]) (thioether N-13) [Example 14074]
- IC50 [2]: 10 to 99 nM

Binder: {CH2CO}-Y[NMeA]DPHK[Hyp]WK[Trp(1-CH2CO)][NMeNle][NMeNle]ECG[Pra′]([triazole-X1]) (thioether N-14) [Example 14075]
- IC50 [2]: 10 to 99 nM

Binder: {CH2CO}-Y[NMeA]DPHK[Hyp]WK[Trp(1-CH2CO)][NMeNle][NMeNle]ECG[Pra′]([triazole-X2]) (thioether N-14) [Example 14079]
- IC50 [2]: 10 to 99 nM

Binder: {CH2CO}-Y[NMeA]NP[Dap]L[Hyp]WS[Trp(1-CH2CO)][NMeNle][NMeNle]LCG[Pra′]([triazole-X2]) (thioether N-14) [Example 14080]
- IC50 [2]: 10 to 99 nM

Binder: {CH2CO}-Y[NMeA]NP[Dap]L[Hyp]WS[Trp(1-CH2CO)][NMeNle][NMeNle]LCG[Pra(4)]([triazole-Dab-C16 diacid]) (thioether N-14) [Example 14083]
- IC50 [2]: 10 to 99 nM
